B1: nanobody NB3 (VHH)
VHH: QVQLVESGGGLVQPGGSLRLSCAASGSISEINVMGWYRQAPGKQRELVARITTGGSTNYADSVKGRFTISRDNAKNTVYLQMNSLKPEDTAVYMCNAHRRVVMEWGPLGYDYWGQGTQVTVSS
notes: not shown: Myc, C-terminal, kept; His, C-terminal, kept
B2: NB1 (VHH)
VHH: QVQLVESGGGLVQPGGSLRLSCAASGTSFTINVMAWYRQAPGKQRELVAGITSGGTTNYADAVKGRFAITSDNAKNTVYLQMNGLKSEDTAVYYCNAATTVPYPDYGFSLGTYDYEAWGQGTQVTVSS
B3: NB2 (VHH)
VHH: QVQLVESGGGLVQPGGSLRLSCAASRIKRNIMSMGWYRQAPGKQRELVATLLRGGVTNYADSVKGRFTISRDNAKNTLYLQMNSLKPEDTAVYYCTLKEQMFDTTYWGQGTQVTVSS
B4: nanobody NB4 (VHH)
VHH: QVQLVESGGGLVQAGGSLRLSCAASGRTFRSYTLGWFRQAPGKEREFVAAIKWSTDTTYYADSVKGRFTISGDNAKNTVYLQMNSLKPEDTAVYFCAARSLSTVIAGPEIPWPYNSWGQGTQVTVSS
notes: as for B1

How the values were obtained:
[1] = biological target: T1, Avi-tagged, biotinylated GDP-mannose transporter Vrg4 from Candida albicans (Candida albicans (SC5314 entry Q5A477), UniProt Q5A477); assay: ELISA; conditions: both partners purified
T1 construct: also called biotinylated CaVrg4; source: S. cerevisiae strain BJ5460, purified as the untagged version, biotinylated using BirA ligase; not shown: Avi tag, C-terminal, kept
T1 sequence (Q5A477 34-371, one chain of several): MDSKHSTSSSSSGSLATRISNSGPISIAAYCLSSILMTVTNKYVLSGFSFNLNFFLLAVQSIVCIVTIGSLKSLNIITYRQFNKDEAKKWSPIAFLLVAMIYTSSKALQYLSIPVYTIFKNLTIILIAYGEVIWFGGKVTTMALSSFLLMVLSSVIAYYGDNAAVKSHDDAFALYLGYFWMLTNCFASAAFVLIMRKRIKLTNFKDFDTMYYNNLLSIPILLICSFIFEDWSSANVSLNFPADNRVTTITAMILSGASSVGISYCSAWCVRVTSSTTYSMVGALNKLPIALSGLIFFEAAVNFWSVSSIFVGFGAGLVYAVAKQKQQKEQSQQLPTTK

[2] = biological target: GDP-mannose transporter Vrg4 from Candida albicans (Candida albicans, UniProt Q5A477)
Sequence of GDP-mannose transporter Vrg4 from Candida albicans (Q5A477 34-371): as the sequence (Q5A477 34-371, one chain of several) above

| Binder | Kd [1] | Kd [2] |
| --- | --- | --- |
| B1 | ~3 nM |  |
| B2 |  | 109 nM |
| B3 |  | 125 nM |
| B4 | ~10 nM |  |
